In paper PMC8006934 (2021):

Columns and labels:
Experiment in all cases: SPR
[1] = target: T1, FcγRIa, human, C-terminally biotinylated (human, UniProt P12314 16-292, biotin, C-terminal)
T1 chain: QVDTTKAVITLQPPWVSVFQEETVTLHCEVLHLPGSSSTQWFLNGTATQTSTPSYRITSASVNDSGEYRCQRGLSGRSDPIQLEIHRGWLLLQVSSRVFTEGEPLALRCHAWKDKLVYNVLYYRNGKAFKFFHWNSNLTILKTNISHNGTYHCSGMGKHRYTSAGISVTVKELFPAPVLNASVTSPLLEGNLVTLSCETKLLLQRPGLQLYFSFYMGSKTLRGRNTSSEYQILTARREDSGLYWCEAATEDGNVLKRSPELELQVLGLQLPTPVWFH

[2] = target: FcγRIIIa-F158, human, C-terminally biotinylated (human, UniProt P08637 17-208, biotin, C-terminal)
Chain of FcγRIIIa-F158, human, C-terminally biotinylated (P08637 17-208): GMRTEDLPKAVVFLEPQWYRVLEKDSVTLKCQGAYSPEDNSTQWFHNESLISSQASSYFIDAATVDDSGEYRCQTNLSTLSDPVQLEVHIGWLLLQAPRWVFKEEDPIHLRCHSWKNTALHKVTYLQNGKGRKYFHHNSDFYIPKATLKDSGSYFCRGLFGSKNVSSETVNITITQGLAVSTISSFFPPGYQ

[3] = target: T2, FcγRIIa-R131, human, C-terminally biotinylated (human, biotin, C-terminal)
T2 chain: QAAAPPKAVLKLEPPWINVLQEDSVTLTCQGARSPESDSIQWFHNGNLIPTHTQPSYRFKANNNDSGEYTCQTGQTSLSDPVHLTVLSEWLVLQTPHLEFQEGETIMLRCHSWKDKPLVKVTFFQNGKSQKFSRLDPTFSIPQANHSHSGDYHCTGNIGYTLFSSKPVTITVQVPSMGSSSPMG

[4] = target: FcγRIIIa-V158, human, C-terminally biotinylated (human, UniProt P08637 17-208, p.176Val (V158), biotin, C-terminal)
Chain of FcγRIIIa-V158, human, C-terminally biotinylated (P08637 other isoform, or with tags, fused parts or gaps p.176Val (V158)): as the sequence (P08637 17-208) above, with F160V counted along it

[5] = target: T3, FcγRIIa-H131, human, C-terminally biotinylated (human, UniProt P12318 34-217, biotin, C-terminal)
T3 chain: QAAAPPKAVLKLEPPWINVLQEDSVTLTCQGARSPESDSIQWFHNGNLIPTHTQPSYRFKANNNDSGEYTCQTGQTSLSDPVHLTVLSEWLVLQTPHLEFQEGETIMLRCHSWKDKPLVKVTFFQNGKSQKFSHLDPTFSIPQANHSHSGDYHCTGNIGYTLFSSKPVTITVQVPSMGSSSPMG

- Kd [1]: 3.4 µM
- Kd [2]: 4.9 µM
- Kd [3]: 4.6 µM
- Kd [4]: 4.4 µM
- Kd [5]: 4.5 µM
B1: C-reactive protein (native CRP from human fluid) (natural protein)
chain: QTDMSRKAFVFPKESDTSYVSLKAPLTKPLKAFTVCLHFYTELSSTRGYSIFSYATKRQDNEILIFWSKDIGYSFTVGGSEILFEVPEVTVAPVHICTSWESASGIVEFWVDGKPRVRKSLKKGYTVGAEASIILGQEQDSFGGNFEGSQSLVGDIGNVNMWDFVLSPDEINTIYLGGPFSPNVLNWRALKYEVQGEVFTKPQLWP
